{"source": "paper PMC10767040", "about": "“Helical reconstruction of VP39 reveals principles for baculovirus nucleocapsid assembly” (Nature Communications, 2024)", "proteins": {"B1": {"name": "Autographa californica multiple nucleopolyhedrovirus (AcMNPV) major capsid protein VP39 (natural protein)", "chain": "MALVPVGMAPRQMRVNRCIFASIVSFDACITYKSPCSPDAYHDDGWFICNNHLIKRFKMSKMVLPIFDEDDNQFKMTIARHLVGNKERGIKRILIPSATNYQDVFNLNSMMQAEQLIFHLIYNNENAVNTICDNLKYTEGFTSNTQRVIHSVYATTKSILDTTNPNTFCSRVSRDELRFFDVTNARALRGGAGDQLFNNYSGFLQNLIRRAVAPEYLQIDTEELRFRNCATCIIDETGLVASVPDGPELYNPIRSSDIMRSQPNRLQIRNVLKFEGDTRELDRTLSGYEEYPTYVPLFLGYQIINSENNFLRNDFIPRANPNATLGGGAVAGPAPGVAGEAGGGIAV", "notes": "VP39, the 39 kDa major capsid protein of Autographa californica multiple nucleopolyhedrovirus, as assembled in the nucleocapsid; the first 11 residues of the N terminus and the last 27 residues of the C terminus are unresolved in the model; The virus's own VP39 from the bacmid backbone; the decahistidine or FLAG tags were on unrelated human constructs, not on VP39; In the sample VP39 stood as …"}}, "target": "the molecule itself", "experiment": "cryo-EM structure; helical reconstruction (D14, rise 43.86 Å, twist -7.16°) of AcMNPV nucleocapsids purified from Sf9 cells, on graphene-coated grids; local reconstruction of four adjacent VP39 dimers", "data": [{"protein": "B1", "values": [{"measurement": "stoichiometry N", "value": 2}]}]}
